Where no end group is shown, it is not given here.

The target of experiment [1] is T1, PSMA Fab (006 PSMA Fab).
T1 construct: also called Anti-PSMA Fab; anti-PSMA Fab
Briefly: clonal phage ELISA; biotinylated PSMA Fab on neutravidin plate pre-incubated with PSMA antigen as competitor; anti-M13 HRP detection. (In an ELISA, binding on a coated surface is turned into a signal by an enzyme label.)
Experimental: (§1) Clonal phage were harvested as crude supernatants and screened via standard ELISAs. […] Prior to the addition of clonal phage. wells were incubated with blocking buffer and PSMA antigen or blocking buffer alone. Without washing or aspirating, clonal phage supernatants were then added to the wells and incubated for a short time. Wells were then washed followed by detection of bound phage using a horse radish conjugated anti-M13 antibody.

The target of experiment [2] is T1, PSMA Fab (006 PSMA Fab). As to the kind of experiment: clonal phage ELISA; biotinylated PSMA Fab on neutravidin plate, blocking buffer alone; anti-M13 HRP detection.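 Note: crude clonal phage supernatants added without washing to wells pretreated with blocking buffer with or without PSMA antigen, short incubation, then washed before detecting bound phage.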
Experimental: as §1
Experiment [3] addresses T2, 006 PSMA Fab (biotinylated (site not stated)).
T2 construct: Biotinylated PSMA Fab captured on neutravidin coated plates in the clonal phage ELISA; also called Anti-PSMA Fab; anti-PSMA Fab
Briefly: clonal phage ELISA, biotinylated PSMA Fab on neutravidin plate, anti-M13 HRP detection, no PSMA antigen.

In experiment [4] the target is T2, 006 PSMA Fab. Briefly: clonal phage ELISA, biotinylated PSMA Fab on neutravidin plate, anti-M13 HRP detection; competitor PSMA antigen.
Experimental: as §1
Experiment [5] concerns the target T3, PSMA Fab.
T3 construct: also called Anti-PSMA Fab; 006 PSMA Fab
As to the kind of experiment: clonal phage ELISA on captured PSMA Fab pre-incubated with PSMA antigen as competitor, anti-M13 HRP detection.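 Note: crude clonal phage supernatants tested by ELISA, wells first treated with blocking buffer plus PSMA antigen, bound phage read out via HRP-linked anti-M13 antibody.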
Experimental: as §1

Experiment [6] addresses T3, PSMA Fab. As to the kind of experiment: clonal phage ELISA on biotinylated PSMA Fab captured on neutravidin plates, anti-M13 HRP detection, blocking buffer alone.
Experimental: as §1

B1: Phage-3136 (peptide)
peptide: VVQICKPSWMCEGF
modifications: cysteine pairing not given here; also: fused to phage pIII, orientation and linker not given here
With B1, the “Phage binding ELISA signal, Anti-PSMA Fab in presence of PSMA” value (“Phage binding ELISA signal … of PSMA” for short) with PSMA Fab (006 PSMA Fab) [1] came out at 0.102. Moreover, in the experiment with PSMA Fab (006 PSMA Fab) [2], the “Phage binding ELISA signal, Anti-PSMA Fab” value was found to be 2.06.

B2: Phage-3132 (peptide)
peptide: THIICKPAWMCDAW
modifications: cysteine pairing not given here; also: fused to phage pIII, orientation and linker not given here
Take B2: the “Phage binding ELISA signal … of PSMA” value in the experiment with PSMA Fab (006 PSMA Fab) [1] amounted to 0.0691. For the same molecule, in the experiment with PSMA Fab (006 PSMA Fab) [2], the “Phage binding ELISA signal, Anti-PSMA Fab” value is 2.06.

On to APVFCKPAWMCPWL [Phage-3121], for which the “phage binding ELISA signal” value with 006 PSMA Fab [3] is 2.07. Also, the “phage binding ELISA signal with PSMA antigen present” value with 006 PSMA Fab [4] came to 0.0695.

B3: Phage-3130 (peptide)
peptide: SVGYCVPSWMCSGF
modifications: cysteine pairing not given here; also: fused to phage pIII, orientation and linker not given here
On to B3, for which the “Phage binding ELISA signal … of PSMA” value with PSMA Fab (006 PSMA Fab) [1] was 0.075. Further, the “Phage binding ELISA signal, Anti-PSMA Fab” value in the experiment with PSMA Fab (006 PSMA Fab) [2] amounted to 2.06.

B4: Phage-3128 (peptide)
peptide: LELACKPEWMCVGF
modifications: cysteine pairing not given here; also: fused to phage pIII, orientation and linker not given here
B4: the “phage binding ELISA signal” value with 006 PSMA Fab [3] amounted to 2.06. Moreover, the “phage binding ELISA signal with PSMA antigen present” value with 006 PSMA Fab [4] is 0.0801.

B5: Phage-3133 (peptide)
peptide: YERSCVPSWMCEGF
modifications: cysteine pairing not given here; also: fused to phage pIII, orientation and linker not given here
For the molecule B5, in the experiment with PSMA Fab (006 PSMA Fab) [1], the “Phage binding ELISA signal … of PSMA” value worked out at 0.066. Besides, the “Phage binding ELISA signal, Anti-PSMA Fab” value with PSMA Fab (006 PSMA Fab) [2] turned out to be 2.06.

Take LESMCIPPWMCSGL [Phage-3118]: in the experiment with 006 PSMA Fab [3], the “phage binding ELISA signal” value turned out to be 2.07. Further, the “phage binding ELISA signal with PSMA antigen present” value with 006 PSMA Fab [4] amounted to 0.109.

B6: Phage-3142 (peptide)
peptide: AGVYCTPMWMCTGF
modifications: cysteine pairing not given here; also: fused to phage pIII, orientation and linker not given here
Take B6: the “Phage binding ELISA signal … of PSMA” value with PSMA Fab (006 PSMA Fab) [1] amounted to 0.0775. Further, the “Phage binding ELISA signal, Anti-PSMA Fab” value in the experiment with PSMA Fab (006 PSMA Fab) [2] was determined as 2.05.

B7: Phage-3141 (peptide)
peptide: YERVCEPLWMCTGF
modifications: cysteine pairing not given here; also: fused to phage pIII, orientation and linker not given here
Consider B7, for which, in the experiment with PSMA Fab (006 PSMA Fab) [1], the “Phage binding ELISA signal … of PSMA” value came out at 0.0802. Besides, the “Phage binding ELISA signal, Anti-PSMA Fab” value with PSMA Fab (006 PSMA Fab) [2] was 2.05.

B8: Phage-3137 (peptide)
peptide: IVPKCQPSWMCFGF
modifications: cysteine pairing not given here; also: fused to phage pIII, orientation and linker not given here
B8: the “Phage binding ELISA signal … of PSMA” value in the experiment with PSMA Fab (006 PSMA Fab) [1] stood at 0.0991. In addition, the “Phage binding ELISA signal, Anti-PSMA Fab” value with PSMA Fab (006 PSMA Fab) [2] worked out at 2.06.

B9: Phage-3125 (peptide)
peptide: VNVKCVPSWMCSGF
modifications: cysteine pairing not given here; also: fused to phage pIII, orientation and linker not given here
Consider B9, for which the “phage binding ELISA signal” value with 006 PSMA Fab [3] was 2.07. Further, in the experiment with 006 PSMA Fab [4], the “phage binding ELISA signal with PSMA antigen present” value worked out at 0.0739.

Consider DYHYCEPAWMCFGF [Phage-3119], for which, in the experiment with 006 PSMA Fab [3], the “phage binding ELISA signal” value amounted to 2.07. Moreover, in the experiment with 006 PSMA Fab [4], the “phage binding ELISA signal with PSMA antigen present” value stood at 0.0726.

B10: Phage-3126 (peptide)
peptide: FEILCRPLWMCSGF
modifications: cysteine pairing not given here; also: fused to phage pIII, orientation and linker not given here
Regarding B10, in the experiment with 006 PSMA Fab [3], the “phage binding ELISA signal” value was 2.06. Also, in the experiment with 006 PSMA Fab [4], the “phage binding ELISA signal with PSMA antigen present” value came out at 0.111.

Take NEPWCVPAWMCTGF [Phage-3120]: the “phage binding ELISA signal” value with 006 PSMA Fab [3] was 2.07. Besides, the “phage binding ELISA signal with PSMA antigen present” value with 006 PSMA Fab [4] stood at 0.0834.

B11: Phage-3129 (peptide)
peptide: GHQMCVPQWMCDAF
modifications: cysteine pairing not given here; also: fused to phage pIII, orientation and linker not given here
Turning to B11, the “Phage binding ELISA signal … of PSMA” value with PSMA Fab (006 PSMA Fab) [1] is 0.0607. In the experiment with PSMA Fab (006 PSMA Fab) [2], the “Phage binding ELISA signal, Anti-PSMA Fab” value turned out to be 2.06.

B12: Phage-3135 (peptide)
peptide: HQLMCRPAWMCEGF
modifications: cysteine pairing not given here; also: fused to phage pIII, orientation and linker not given here
With B12, the “Phage binding ELISA signal … of PSMA” value with PSMA Fab (006 PSMA Fab) [1] came to 0.118. In addition, the “Phage binding ELISA signal, Anti-PSMA Fab” value with PSMA Fab (006 PSMA Fab) [2] was 2.06.

B13: Phage-3138 (peptide)
peptide: DTRICKPEWMCMGM
modifications: cysteine pairing not given here; also: fused to phage pIII, orientation and linker not given here
As to B13, the “Phage binding ELISA signal … of PSMA” value with PSMA Fab (006 PSMA Fab) [1] came out at 0.107. For the same molecule, the “Phage binding ELISA signal, Anti-PSMA Fab” value with PSMA Fab (006 PSMA Fab) [2] came out at 2.06.

Turning to SGALCVPLWMCTGF [Phage-3117], the “phage binding ELISA signal” value in the experiment with 006 PSMA Fab [3] is 2.07. For the same molecule, in the experiment with 006 PSMA Fab [4], the “phage binding ELISA signal with PSMA antigen present” value was found to be 0.0979.

B14: Phage-3124 (peptide)
peptide: SMHWCEPMWMCAGF
modifications: cysteine pairing not given here; also: fused to phage pIII, orientation and linker not given here
As for B14, in the experiment with 006 PSMA Fab [3], the “phage binding ELISA signal” value stood at 2.07. Further, the “phage binding ELISA signal with PSMA antigen present” value with 006 PSMA Fab [4] worked out at 0.0809.

B15: Phage-3139 (peptide)
peptide: TAPVCVPWWMCEGF
modifications: cysteine pairing not given here; also: fused to phage pIII, orientation and linker not given here
With B15, in the experiment with PSMA Fab (006 PSMA Fab) [1], the “Phage binding ELISA signal … of PSMA” value came to 0.0757. Moreover, the “Phage binding ELISA signal, Anti-PSMA Fab” value with PSMA Fab (006 PSMA Fab) [2] turned out to be 2.05.

B16: Phage-3140 (peptide)
peptide: IDTICRPSWMCLGF
modifications: cysteine pairing not given here; also: fused to phage pIII, orientation and linker not given here
As for B16, the “Phage binding ELISA signal … of PSMA” value in the experiment with PSMA Fab (006 PSMA Fab) [1] is 0.0788. Moreover, in the experiment with PSMA Fab (006 PSMA Fab) [2], the “Phage binding ELISA signal, Anti-PSMA Fab” value was determined as 2.05.

B17: Phage-3127 (peptide)
peptide: LDKRCVPVWMCEGF
modifications: cysteine pairing not given here; also: fused to phage pIII, orientation and linker not given here
As to B17, the “phage binding ELISA signal” value in the experiment with 006 PSMA Fab [3] was 2.06. The “phage binding ELISA signal with PSMA antigen present” value in the experiment with 006 PSMA Fab [4] turned out to be 0.0828.

B18: Phage-3122 (peptide)
peptide: GMIQCRPAWMCAGL
modifications: cysteine pairing not given here; also: fused to phage pIII, orientation and linker not given here
With B18, in the experiment with 006 PSMA Fab [3], the “phage binding ELISA signal” value stood at 2.07. Also, the “phage binding ELISA signal with PSMA antigen present” value in the experiment with 006 PSMA Fab [4] came out at 0.0928.

B19: Phage-3134 (peptide)
peptide: AERLCVPAWMCLNL
modifications: cysteine pairing not given here; also: fused to phage pIII, orientation and linker not given here
Take B19: in the experiment with PSMA Fab (006 PSMA Fab) [1], the “Phage binding ELISA signal … of PSMA” value was 0.0543. Besides, in the experiment with PSMA Fab (006 PSMA Fab) [2], the “Phage binding ELISA signal, Anti-PSMA Fab” value is 2.06.

B20: Phage-3123 (peptide)
peptide: GYPLCIPEWMCAGF
modifications: cysteine pairing not given here; also: fused to phage pIII, orientation and linker not given here
Take B20: the “phage binding ELISA signal” value with 006 PSMA Fab [3] was determined as 2.07. The “phage binding ELISA signal with PSMA antigen present” value with 006 PSMA Fab [4] worked out at 0.0968.

B21: Phage-3143 (peptide)
peptide: SVPLCIPEWMCVGF
modifications: cysteine pairing not given here; also: fused to phage pIII, orientation and linker not given here
notes: Clonal phage of the Peptide-180 library, tested as crude supernatant; not shown: fused to pIII of the bacteriophage
Consider B21, for which the “phage binding ELISA signal (Anti-PSMA Fab, PSMA antigen present)” value in the experiment with PSMA Fab [5] came to 0.106. Also, in the experiment with PSMA Fab [6], the “Phage binding ELISA signal, Anti-PSMA Fab” value turned out to be 2.05.

B22: Phage-3131 (peptide)
peptide: DAVRCVPSWMCEGF
modifications: cysteine pairing not given here; also: fused to phage pIII, orientation and linker not given here
As to B22, the “Phage binding ELISA signal … of PSMA” value with PSMA Fab (006 PSMA Fab) [1] worked out at 0.1. For the same molecule, the “Phage binding ELISA signal, Anti-PSMA Fab” value in the experiment with PSMA Fab (006 PSMA Fab) [2] worked out at 2.06.

The values are drawn from patent publication US20260242478A1 (published 2026).
